To fix the notation:
B1: SEQ ID NO: 1 (peptide)
peptide: H-[dF]RCF[dW]KTF[N(2-mercaptoethyl)Gly]-NH2
modifications: disulfide 3-9
SMILES: C[C@@H](O)[C@@H]1NC(=O)[C@H](CCCCN)NC(=O)[C@@H](Cc2c[nH]c3ccccc23)NC(=O)[C@H](Cc2ccccc2)NC(=O)[C@@H](NC(=O)[C@H](CCCNC(=N)N)NC(=O)[C@H](N)Cc2ccccc2)CSSCCN(CC(N)=O)C(=O)[C@H](Cc2ccccc2)NC1=O
B2: SEQ ID NO: 12 (peptide)
peptide: {DOTA}-A[dF]RCF[dW]KTF[N(2-mercaptoethyl)Gly]-NH2
modifications: disulfide 4-10
SMILES: C[C@H](NC(=O)CN1CCN(CC(=O)O)CCN(CC(=O)O)CCN(CC(=O)O)CC1)C(=O)N[C@H](Cc1ccccc1)C(=O)N[C@@H](CCCNC(=N)N)C(=O)N[C@H]1CSSCCN(CC(N)=O)C(=O)[C@H](Cc2ccccc2)NC(=O)[C@H]([C@@H](C)O)NC(=O)[C@H](CCCCN)NC(=O)[C@@H](Cc2c[nH]c3ccccc23)NC(=O)[C@H](Cc2ccccc2)NC1=O
B3: SEQ ID NO: 11 (peptide)
peptide: {DOTA}-G[dF]RCF[dW]KTF[N(2-mercaptoethyl)Gly]-NH2
modifications: disulfide 4-10
SMILES: C[C@@H](O)[C@@H]1NC(=O)[C@H](CCCCN)NC(=O)[C@@H](Cc2c[nH]c3ccccc23)NC(=O)[C@H](Cc2ccccc2)NC(=O)[C@@H](NC(=O)[C@H](CCCNC(=N)N)NC(=O)[C@@H](Cc2ccccc2)NC(=O)CNC(=O)CN2CCN(CC(=O)O)CCN(CC(=O)O)CCN(CC(=O)O)CC2)CSSCCN(CC(N)=O)C(=O)[C@H](Cc2ccccc2)NC1=O
B4: SEQ ID NO: 9 (peptide)
peptide: {DOTA}-[dF]KCF[dW]KTF[N(2-mercaptoethyl)Gly]-NH2
modifications: disulfide 3-9
SMILES: C[C@@H](O)[C@@H]1NC(=O)[C@H](CCCCN)NC(=O)[C@@H](Cc2c[nH]c3ccccc23)NC(=O)[C@H](Cc2ccccc2)NC(=O)[C@@H](NC(=O)[C@H](CCCCN)NC(=O)[C@@H](Cc2ccccc2)NC(=O)CN2CCN(CC(=O)O)CCN(CC(=O)O)CCN(CC(=O)O)CC2)CSSCCN(CC(N)=O)C(=O)[C@H](Cc2ccccc2)NC1=O
B5: SEQ ID NO: 2 (peptide)
peptide: H-[dF]KCF[dW]KTF[N(2-mercaptoethyl)Gly]-NH2
modifications: disulfide 3-9
SMILES: C[C@@H](O)[C@@H]1NC(=O)[C@H](CCCCN)NC(=O)[C@@H](Cc2c[nH]c3ccccc23)NC(=O)[C@H](Cc2ccccc2)NC(=O)[C@@H](NC(=O)[C@H](CCCCN)NC(=O)[C@H](N)Cc2ccccc2)CSSCCN(CC(N)=O)C(=O)[C@H](Cc2ccccc2)NC1=O
B6: SEQ ID NO: 24 (peptide)
peptide: {DOTA}-[dF]KCY[dW]KTF[N(2-mercaptoethyl)Gly]-NH2
modifications: disulfide 3-9
SMILES: C[C@@H](O)[C@@H]1NC(=O)[C@H](CCCCN)NC(=O)[C@@H](Cc2c[nH]c3ccccc23)NC(=O)[C@H](Cc2ccc(O)cc2)NC(=O)[C@@H](NC(=O)[C@H](CCCCN)NC(=O)[C@@H](Cc2ccccc2)NC(=O)CN2CCN(CC(=O)O)CCN(CC(=O)O)CCN(CC(=O)O)CC2)CSSCCN(CC(N)=O)C(=O)[C@H](Cc2ccccc2)NC1=O

As a reminder, the IC50 is the point on the concentration scale where inhibition reaches its midpoint. A low value points to higher potency. Broadly, the Ki is the dissociation constant of the complex between target and ligand, obtained from inhibition or displacement. Higher therefore signals lower affinity.

*1 amine or outer side, *2 acyl side, *3 side chain or, on linkers, in order; H or OH if unused. Bridges are numbered along the chain shown (N, C = ends). [ ]: non-standard residue; d: D form. The star is where a group is joined. DOTA = O=C(O)CN1CCN(CC(=O)O)CCN(CC(=O)*)CCN(CC(=O)O)CC1; N(2-mercaptoethyl)Gly = O=C(CN(CCS[*:3])[*:1])[*:2]; NTEG = not defined here; GABA = NCCCC(=O)O

human cloned somatostatin receptor 5 (human), sequence (P35346 whole entry): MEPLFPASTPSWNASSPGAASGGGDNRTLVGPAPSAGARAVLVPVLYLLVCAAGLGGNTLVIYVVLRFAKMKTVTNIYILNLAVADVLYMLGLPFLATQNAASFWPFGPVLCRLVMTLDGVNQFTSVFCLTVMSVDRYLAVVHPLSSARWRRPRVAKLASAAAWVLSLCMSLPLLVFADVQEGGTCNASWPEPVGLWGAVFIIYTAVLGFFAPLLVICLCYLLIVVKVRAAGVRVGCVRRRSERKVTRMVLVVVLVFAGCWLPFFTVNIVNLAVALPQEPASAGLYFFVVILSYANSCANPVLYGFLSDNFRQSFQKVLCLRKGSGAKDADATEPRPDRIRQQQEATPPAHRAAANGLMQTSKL

For one assay, the target named is human cloned somatostatin receptor 1 (human) (UniProt P30872). Description: 125I-Tyr11-SRIF-14 displacement.
human cloned somatostatin receptor 1 (human), sequence (P30872 whole entry): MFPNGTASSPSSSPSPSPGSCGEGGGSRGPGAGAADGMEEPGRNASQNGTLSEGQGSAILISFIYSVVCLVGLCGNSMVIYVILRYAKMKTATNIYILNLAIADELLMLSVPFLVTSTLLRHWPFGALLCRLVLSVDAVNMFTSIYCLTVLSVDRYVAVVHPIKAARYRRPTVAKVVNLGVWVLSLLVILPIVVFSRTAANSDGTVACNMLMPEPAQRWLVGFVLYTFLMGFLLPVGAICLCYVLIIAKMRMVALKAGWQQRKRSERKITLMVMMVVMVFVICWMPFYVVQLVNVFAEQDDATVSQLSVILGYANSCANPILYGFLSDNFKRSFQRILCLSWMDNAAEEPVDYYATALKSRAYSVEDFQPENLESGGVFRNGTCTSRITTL
Take B1: the IC50 came to 0.18 µM and the Ki was 0.15 µM.

B2 gave a % displacement at 1 nM of 0% and a % displacement at 10 nM of 10%.

In the case of B3, the % displacement at 1 nM is 2% and the % displacement at 10 nM stood at 19%.

{DOTA}-[dF]RCF[dW]KTF[N(2-mercaptoethyl)Gly]-NH2 (disulfide 3-9; also: Lu complex of DOTA) [SEQ ID NO: 6] displayed an IC50 of 0.31 µM and a Ki of 0.26 µM.

As for B4, the % displacement at 1 nM amounted to 4% and the % displacement at 10 nM amounted to 10%.

{DOTA-GABA}-[dF]RCF[dW]KTF[N(2-mercaptoethyl)Gly]-NH2 (disulfide 3-9; also: Ga complex of DOTA) [SEQ ID NO: 8] had a % displacement at 1 nM of 0% and a % displacement at 10 nM of 10%.

For {DOTA}-[dF]RCF[dW]KTF[N(2-mercaptoethyl)Gly]-NH2 (disulfide 3-9; also: Cu complex of DOTA) [SEQ ID NO: 5], the IC50 turned out to be 0.78 µM and the Ki came to 0.64 µM.

The target of a further assay is human cloned somatostatin receptor 2 (human) (UniProt P30874). Description: 125I-Tyr11-SRIF-14 displacement.
human cloned somatostatin receptor 2 (human), sequence (P30874 whole entry): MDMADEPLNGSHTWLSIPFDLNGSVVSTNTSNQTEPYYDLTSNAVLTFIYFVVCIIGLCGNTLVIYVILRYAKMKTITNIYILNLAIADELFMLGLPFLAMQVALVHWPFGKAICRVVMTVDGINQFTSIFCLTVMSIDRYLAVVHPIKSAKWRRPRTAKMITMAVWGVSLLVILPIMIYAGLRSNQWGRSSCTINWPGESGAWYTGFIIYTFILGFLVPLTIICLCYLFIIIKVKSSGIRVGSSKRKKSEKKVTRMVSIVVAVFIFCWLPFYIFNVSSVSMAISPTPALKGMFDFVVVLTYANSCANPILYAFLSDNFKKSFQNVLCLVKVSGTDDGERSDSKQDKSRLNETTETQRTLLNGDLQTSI
Molecule B1 returned an IC50 of 0.39 µM and a Ki of 0.32 µM.

As to B2, the % displacement at 1 nM turned out to be 0% and the % displacement at 10 nM turned out to be 0%.

Consider B3, for which the % displacement at 1 nM worked out at 0% and the % displacement at 10 nM worked out at 0%.

The molecule {DOTA}-[dF]RCF[dW]KTF[N(2-mercaptoethyl)Gly]-NH2 (disulfide 3-9; also: Lu complex of DOTA) [SEQ ID NO: 6] displayed an IC50 of 0.21 µM and a Ki of 0.11 µM.

The molecule B4 displayed a % displacement at 1 nM of 0% and a % displacement at 10 nM of 0%.

With {DOTA-GABA}-[dF]RCF[dW]KTF[N(2-mercaptoethyl)Gly]-NH2 (disulfide 3-9; also: Ga complex of DOTA) [SEQ ID NO: 8], the % displacement at 1 nM was 0% and the % displacement at 10 nM worked out at 10%.

In turn, {DOTA}-[dF]RCF[dW]KTF[N(2-mercaptoethyl)Gly]-NH2 (disulfide 3-9; also: Cu complex of DOTA) [SEQ ID NO: 5] displayed an IC50 of 0.42 µM and a Ki of 0.22 µM.

The target in a further assay is human cloned somatostatin receptor 4 (human) (UniProt P31391). Kind of assay: 125I-Tyr11-SRIF-14 displacement.
human cloned somatostatin receptor 4 (human), sequence (P31391 whole entry): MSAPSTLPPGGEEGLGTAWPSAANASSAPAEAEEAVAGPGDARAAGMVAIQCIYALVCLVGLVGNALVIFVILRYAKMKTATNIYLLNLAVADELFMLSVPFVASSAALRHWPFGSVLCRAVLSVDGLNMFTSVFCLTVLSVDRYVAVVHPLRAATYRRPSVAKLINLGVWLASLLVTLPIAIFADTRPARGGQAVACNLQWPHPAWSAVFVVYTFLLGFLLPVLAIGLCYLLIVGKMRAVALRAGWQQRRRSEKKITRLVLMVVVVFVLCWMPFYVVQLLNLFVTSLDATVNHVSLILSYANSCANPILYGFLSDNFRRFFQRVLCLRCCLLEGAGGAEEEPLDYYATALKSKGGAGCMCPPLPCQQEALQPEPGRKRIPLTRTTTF
In turn, B2 displayed a % displacement at 1 nM of 0% and a % displacement at 10 nM of 0%.

With B3, the % displacement at 1 nM stood at 0% and the % displacement at 10 nM amounted to 0%.

In turn, B4 returned a % displacement at 1 nM of 0% and a % displacement at 10 nM of 0%.

With {DOTA-GABA}-[dF]RCF[dW]KTF[N(2-mercaptoethyl)Gly]-NH2 (disulfide 3-9; also: Ga complex of DOTA) [SEQ ID NO: 8], the % displacement at 1 nM stood at 5% and the % displacement at 10 nM was found to be 4%.

The next assay concerns the target human cloned somatostatin receptor 5 (human) (UniProt P35346). Description: 125I-Tyr11-SRIF-14 displacement.
Turning to B1, the IC50 stood at 0.31 µM and the Ki stood at 0.17 µM.

Take B2: the % displacement at 1 nM was 0% and the % displacement at 10 nM came to 13%.

The molecule B3 registered a % displacement at 1 nM of 0% and a % displacement at 10 nM of 0%.

Turning to {DOTA}-[dF]RCF[dW]KTF[N(2-mercaptoethyl)Gly]-NH2 (disulfide 3-9; also: Lu complex of DOTA) [SEQ ID NO: 6], the IC50 came out at 0.086 µM and the Ki stood at 0.048 µM.

The molecule B4 displayed a % displacement at 1 nM of 0% and a % displacement at 10 nM of 12%.

Regarding {DOTA-GABA}-[dF]RCF[dW]KTF[N(2-mercaptoethyl)Gly]-NH2 (disulfide 3-9; also: Ga complex of DOTA) [SEQ ID NO: 8], the % displacement at 1 nM came to 0% and the % displacement at 10 nM amounted to 15%.

{DOTA}-[dF]RCF[dW]KTF[N(2-mercaptoethyl)Gly]-NH2 (disulfide 3-9; also: Cu complex of DOTA) [SEQ ID NO: 5]: the IC50 was 0.15 µM and the Ki was 0.082 µM.

For a further assay, the target named is human cloned somatostatin receptor 3 (human) (UniProt P32745). Description: 125I-Tyr11-SRIF-14 displacement.
human cloned somatostatin receptor 3 (human), sequence (P32745 whole entry): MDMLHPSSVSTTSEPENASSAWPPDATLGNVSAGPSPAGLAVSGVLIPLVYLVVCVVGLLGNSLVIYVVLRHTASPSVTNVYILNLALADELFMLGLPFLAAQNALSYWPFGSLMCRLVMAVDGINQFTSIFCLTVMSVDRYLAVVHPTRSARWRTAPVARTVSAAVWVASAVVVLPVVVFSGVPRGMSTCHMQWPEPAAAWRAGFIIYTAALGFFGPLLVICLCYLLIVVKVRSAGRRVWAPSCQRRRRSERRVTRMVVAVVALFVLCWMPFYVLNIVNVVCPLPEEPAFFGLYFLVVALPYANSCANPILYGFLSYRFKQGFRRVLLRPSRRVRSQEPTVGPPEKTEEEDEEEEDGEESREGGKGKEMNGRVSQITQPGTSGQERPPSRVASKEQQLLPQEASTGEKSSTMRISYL
B1: the IC50 worked out at 0.00043 µM and the Ki is 0.00015 µM.

For the molecule B2, the % displacement at 1 nM turned out to be 64% and the % displacement at 10 nM stood at 93%.

Molecule B5 came in with an IC50 of 0.00073 µM and a Ki of 0.00025 µM.

In the case of B3, the % displacement at 1 nM was 47% and the % displacement at 10 nM was 88%.

On to {DOTA}-[dF]RCF[dW]KTF[N(2-mercaptoethyl)Gly]-NH2 (disulfide 3-9; also: Lu complex of DOTA) [SEQ ID NO: 6], for which the IC50 is 0.0009 µM.

Molecule B6 returned a % displacement at 1 nM of 66% and a % displacement at 10 nM of 88%.

For the molecule {DOTA}-[dF]KCF[dW]KTF[NTEG]-NH2 (disulfide 3-9; reading uncertain; also: Ga chelated by DOTA) [SEQ ID NO: 10], the % displacement at 1 nM is 27%, the % displacement at 10 nM amounted to 75% and the IC50 was 0.0024 µM.

Molecule B4 came in with a % displacement at 1 nM of 59%, a % displacement at 10 nM of 91% and an IC50 of 0.001 µM.

On to {DOTA-GABA}-[dF]RCF[dW]KTF[N(2-mercaptoethyl)Gly]-NH2 (disulfide 3-9; also: Ga complex of DOTA) [SEQ ID NO: 8], for which the % displacement at 1 nM was determined as 61% and the % displacement at 10 nM came to 88%.

Take {DOTA}-[dF]RCF[dW]KTF[N(2-mercaptoethyl)Gly]-NH2 (disulfide 3-9; also: Cu complex of DOTA) [SEQ ID NO: 5]: the IC50 is 0.0009 µM.
